Source: patent US20240174755A1 (published 2024)
Blank lines part the entries; values can stand above or below the binder they belong to.

What was measured:
[1] = molecular target: human PDGFR β on HEK293-PDGFR β cells (human) (UniProt P09619); assay: HEK293-PDGFRβ cells with 500 uM liposome, plate reader (data not shown)
[2] = molecular target: human PDGFR β on HEK293-PDGFR β cells (human) (UniProt P09619); assay: time course on HEK293-PDGFRβ cells, plate reader
[3] = molecular target: human PDGFR β on HEK293-PDGFR β cells (human) (UniProt P09619); assay: HEK293-PDGFRβ cells with 500 uM liposome on ice, plate reader
[4] = molecular target: human PDGFR β on HEK293-PDGFR β cells (human) (UniProt P09619); assay: time course on HEK293-PDGFRβ cells, plate reader; not statistically significant
[5] = molecular target: human PDGFR β on HEK293-PDGFR β cells (human) (UniProt P09619); assay: HEK293-PDGFRβ cells with 500 uM liposome, plate reader
[6] = molecular target: T1, human PDGFR β extra-cellular domain (ECD), Fc- and His-tagged (Sino Biological) (human, UniProt P09619 33-532); assay: SPR (Biacore 3000), Fc/His PDGFR β ECD captured on protein A; 1B5 construct not stated
T1 construct: extracellular domain; Bought; also called hECD; Fc/His-tagged PDGFR β ECD; not shown: Fc tag and His tag
Description: FIG. 11: VHH (flag-his-tagged, or conjugated with HL488, NOTA or 800 CW) binding to human extracellular domain (ECD) of PDGFR β assessed with surface plasmon resonance (SPR). Fc/His-tagged PDGFR β ECD was bound to protein A chemically conjugated to CM4 sensor chip. Binding of VHHs was tested at 0.39-50 nM. Shown are representative SPR Biacore traces of tagged or conjugated 1B5 VHH (panels A); tagged or conjugated 1D4 VHH (panels B); tagged or conjugated 1H4 VHH (panels C) or tagged VHH 1E12 (panel D).
SPR analysis was performed using the Biacore 3000 instrument (GE Healthcare). Protein A was chemically bound to a CM4 sensor chip (GE Healthcare) according to the primary amine procedure to approximately 2100 response units (RU). Fc/His-tagged PDGFR β ECD at 0.4-2.07 ng/ul was bound to protein A at flow rate of 35 ul/min. Run buffer HBS-EP (GE Healthcare; 0.01 M HEPES pH 7.4, 0.15 M NaCl, 3 mM EDTA, 0.005% v/v Surfactant P20) was used for VHHs 1D4, 1H4 and 1E12 conjugates at 50, 25, 12.5, 6.25, 3.13, 1.56, 0.78 and 0.39 nM. For 1B5 conjugates, HBS-EP+0.5 M NaSCN was as run buffer to reduce non-specific binding to a control path without PDGFR β ECD. A flow rate 70 ul/min was used for VHH injections in volumes of 150 ul. Regeneration of the sensor CM4 chip was performed by three successive injections of c. 30 s 10 mM glycine-HCl pH 2, 10 mM glycine-HCl pH 1.5, and 0.5 M NaSCN/10 mM NaOH.

[7] = molecular target: human PDGFR β ECD (U-protein Express, Utrecht) (human) (UniProt P09619); assay: dose response ELISA, PDGFR β ECD coated at 2 µg/ml, rabbit anti-VHH detection
[8] = molecular target: human PDGFR β on HEK293-PDGFR β cells (human) (UniProt P09619); assay: cell binding on ice for 1 h, fluorescence plate reader
[9] = molecular target: human PDGFR β on HEK293-PDGFR β cells (human) (UniProt P09619); assay: FACS dose response, 1 h at 37° C.
[10] = molecular target: human PDGFR β on HEK293-PDGFR β cells (human) (UniProt P09619); assay: FACS dose response, dialyzed VHH-HL488 batch (data not shown)
[11] = molecular target: human PDGFR β on HEK293-PDGFR β cells (human) (UniProt P09619); assay: FACS, 1-10 nM VHH-HL488, 1 h
[12] = molecular target: T2, human PDGFRa (Sino Biological; Cat. Number 10556-HCCH) (human, UniProt P16234 24-524, limits assumed); assay: direct ELISA, PDGFRa coated, streptavidin-HRP detection
T2 construct: Bought; construct not described; also called PDGFRα
Description: (§1) 96-well maxisorp (Nunc) immunosorp plates were coated with 2 ug/ml of human PDGFRa (Sino Biological; Cat. Number; 10556-HCCH) or 2 ug/ml human EGFR/HER1/ErbB1 Protein (His Tag, Sino Biological; Cat. Number; 10001-H08H) in PBS, 100 ul per well, at 4C overnight. Wells were washed thrice in PBS. Unspecific binding sites were blocked in 4% BSA/PBS for 1 h at RT, followed by washing thrice in PBS. VHH-biotin conjugates, diluted at 0.01-100 nM in 1% BSA/PBS, were incubated for 1 h at RT, followed by washing thrice in PBS. Streptavidin-horseradish peroxidase (HRP; GeneTex) was diluted 1:40,000 in 1% BSA/PBS and was incubated for 1 h at RT. PDGFRa or EGFR was detected with positive control antibodies rabbit anti-human PDGFRa/CD140a Antibody, (Cat no: 10556-R065) or rabbit anti-human EGFR/HER1/ErbB1 (Catalog no: 10001-R021, both from Sino Biological) diluted in 1% BSA/PBS at 1:5000 and were incubated for 1 h at RT, shaking. Secondary HRP-conjugated anti-rabbit-antibody was diluted at 1:5000 in 1% BSA/PBS and was incubated for 1 h at RT, shaking. Wells were washed 6 times in PBS. o-Phenylenediamine dihydrochloride (OPD; Sigma-Aldrich) was used as HRP substrate at 0.4 mg/ml in 0.05 M phosphate-citrate buffer pH 5.0 with 0.03% sodium perborate (Sigma-Aldrich), prepared according to the manufacturer's recommendations, and was used in volume of 100 ul per well. Reaction was allowed to proceed for 30 min at RT in dark, and was stopped by adding 50 ul of 1.5 M HCl. Optical density was measured at 492 nm on a Synergy H1 microplate reader (BioTek).
VHH-biotin binding to human PDGFRa was assessed using an ELISA, where wells were coated with PDGFRa, and VHH-biotin binding was detected using streptavidin-HRP with OPD as a substrate.

[13] = molecular target: T3, human EGFR/HER1/ErbB1 Protein (His Tag, Sino Biological; Cat. Number 10001-H08H) (human, UniProt P00533 25-645); assay: direct ELISA, EGFR coated, streptavidin-HRP detection
T3 construct: Bought; construct not described; not shown: His tag
Description: as §1

[14] = molecular target: human PDGFR β on HEK293-PDGFR β cells (human) (UniProt P09619); assay: FACS dose response, 1 h at 37° C. (MFI)

B1: 1B5-liposome-100 (protein)
VHH: EVQLVESGGGLVQPGGSLRLSCVASGFSFSESAMSWVRQAPGKGLEWLSGISSGGGRSTTYAESVEGRFTISRDDAKNTLMLQMNSLKSEDTAVYYCAKTGYCSGYNCNFAPRGQGTQVTVSS
modifications: coupled to maleimide-PEG-DSPE and post-inserted into calcein/rhodamine PE liposomes; 100 nanobodies per liposome
fold rhodamine PE signal, 37° C. [1]: 2.4 fold
fold calcein fluorescence over liposome-0, 3 h (uptake) [2]: 4.7 fold
fold calcein fluorescence over liposome-0, 6 h (uptake) [2]: 5.1 fold
fold calcein fluorescence over non-targeted control, on ice (binding) [3]: 1.8 fold
fold calcein fluorescence over liposome-0, 0 h (binding and/or uptake) [4]: 2.2 fold
fold calcein fluorescence over liposome-0, 1 h (binding and/or uptake) [4]: 2.8 fold
fold calcein fluorescence over non-targeted liposome-0, 37° C. (binding and uptake) [5]: 3.4 fold

B3: 1B5-HL488 (VHH, not shown: small tags and cut ends)
VHH: EVQLVESGGGLVQPGGSLRLSCVASGFSFSESAMSWVRQAPGKGLEWLSGISSGGGRSTTYAESVEGRFTISRDDAKNTLMLQMNSLKSEDTAVYYCAKTGYCSGYNCNFAPRGQGTQVTVSS
modifications: HiLyte Fluor 488-maleimide on the C-terminal cysteine of the C-Direct tag
detection limit [8]: 1 nM
detection limit [9]: 0.1 nM
concentration at which detectable by FACS [10]: 1 nM
MFI at 4° C. (binding) as percent of MFI at 37° C. (binding and uptake) [11]: 52 to 58%

B4: 1D4-HL488 (VHH, not shown: small tags and cut ends)
VHH: EVQLVESGGGLVQAGDSLRLSCAVSGRAQSRDVVGWFRQAPGKEREFLALVTRSYSTYYGASVKGRFTISRDNAKNTVHLEMNSLKPEDTGVYYCAADQGFCSGSGCYDWRTFHVWGQGTQVTVSS
modifications: HiLyte Fluor 488-maleimide on the C-terminal cysteine of the C-Direct tag
detection limit [9]: 0.1 nM
concentration at which detectable by FACS [10]: 1 nM
MFI at 4° C. (binding) as percent of MFI at 37° C. (binding and uptake) [11]: 53 to 61%

B7: 1E12-HL488 (VHH, not shown: small tags and cut ends)
VHH: EVQLVESGGGLVQAGGSLRLSCAPSERSFSAYLMGWFRQAQGKEREFVAAWRWPTSTTYYSDSGKGRFTITGDNAKNTVELEMNSLKPEDTAVYYCAARRGILYGPATSPTAYDFWGQGTQVTVSS
modifications: HiLyte Fluor 488-maleimide on the C-terminal cysteine of the C-Direct tag
lowest concentration detectably bound or taken up (percentage of HL488-positive population) [9]: 10 nM
detection limit [14]: 100 nM

B9: 1H4-HL488 (VHH, not shown: small tags and cut ends)
VHH: EVQLVESGGGLVQPGGSLRVSCSASWRTGNPFAMAWFRQAPGKERELIARISWTAGRTEYAESAKGRFTISRDVAKKTMYLQMNSLTPEDTGVYFCAARFVPSSGPTVFDTWGQGTQVTVSS
modifications: HiLyte Fluor 488-maleimide on the C-terminal cysteine of the C-Direct tag
detection limit [9]: 0.1 nM
concentration at which detectable by FACS [10]: 10 nM
MFI at 4° C. (binding) as percent of MFI at 37° C. (binding and uptake) [11]: 65 to 66%

The remaining lines, values ahead:

Kd [6]: 4 to 5 pM
apparent affinity [7]: 1 nM
B2: QPD-1B5 (VHH)
VHH: EVQLVESGGGLVQPGGSLRLSCVASGFSFSESAMSWVRQAPGKGLEWLSGISSGGGRSTTYAESVEGRFTISRDDAKNTLMLQMNSLKSEDTAVYYCAKTGYCSGYNCNFAPRGQGTQVTVSS
notes: Purified, unconjugated VHH; also called VHH 1B5

binding result [12]: no binding (tested: 0.01-100 nM)
binding result [13]: no binding (tested: 0.01-100 nM)
B5: 1D4-biotin (VHH)
VHH: EVQLVESGGGLVQAGDSLRLSCAVSGRAQSRDVVGWFRQAPGKEREFLALVTRSYSTYYGASVKGRFTISRDNAKNTVHLEMNSLKPEDTGVYYCAADQGFCSGSGCYDWRTFHVWGQGTQVTVSS
modifications: Biotin-maleimide on the C-terminal cysteine of the C-Direct tag
notes: ID NO: 27 or 28; also called biotin-conjugated 1D4; VHH-biotin; not shown: C-terminal C-Direct tag with a free cysteine and an EPEA purification tag (vector pYQVQ11)

apparent affinity [7]: 10 nM
B6: QPD-1E12 (VHH)
VHH: EVQLVESGGGLVQAGGSLRLSCAPSERSFSAYLMGWFRQAQGKEREFVAAWRWPTSTTYYSDSGKGRFTITGDNAKNTVELEMNSLKPEDTAVYYCAARRGILYGPATSPTAYDFWGQGTQVTVSS

apparent affinity [7]: < 1 nM
B8: QPD-1H4 (VHH)
VHH: EVQLVESGGGLVQPGGSLRVSCSASWRTGNPFAMAWFRQAPGKERELIARISWTAGRTEYAESAKGRFTISRDVAKKTMYLQMNSLTPEDTGVYFCAARFVPSSGPTVFDTWGQGTQVTVSS

binding result [12]: no binding (tested: 0.01-100 nM)
binding result [13]: no binding (tested: 0.01-100 nM)
B10: 1H4-biotin (VHH)
VHH: EVQLVESGGGLVQPGGSLRVSCSASWRTGNPFAMAWFRQAPGKERELIARISWTAGRTEYAESAKGRFTISRDVAKKTMYLQMNSLTPEDTGVYFCAARFVPSSGPTVFDTWGQGTQVTVSS
modifications: Biotin-maleimide on the C-terminal cysteine of the C-Direct tag
notes: ID NO: 29 or 30; also called biotin-conjugated 1H4; VHH-biotin; not shown: C-terminal C-Direct tag with a free cysteine and an EPEA purification tag (vector pYQVQ11)
